Paper PMC2963168, “Identification, Cloning, and Characterization of L-Phenylserine Dehydrogenase from Pseudomonas syringae NK-15” (Enzyme Research, 2010)

Assays:
[1] = molecular target: L-phenylserine dehydrogenase (ORF3) from Pseudomonas syringae NK-15 (Pseudomonas syringae NK-15); test: SEC; HPLC gel filtration on a TSK-GEL G3000SW column (0.75 x 60 cm) at room temperature, 0.1 M potassium phosphate buffer (pH 7.0) with 0.2 M NaCl, 0.7 ml/min; native mass 98 kDa against a subunit of 27 kDa by SDS-PAGE
purified protein [2] = substrate: NC(C(=O)O)C(O)c1ccccc1; test: purified protein; format: biochemical, Pseudomonas syringae; details: NAD+ as co-substrate, 0.2 M glycine-KCl-KOH pH 10.5, 30°C (standard assay), racemic DL-threo substrate
purified protein [3] = substrate: NC(=O)c1ccc[n+]([C@@H]2O[C@H](COP(=O)(O)OP(=O)(O)OC[C@H]3O[C@@H](n4cnc5c(N)ncnc54)[C@H](O)[C@@H]3O)[C@@H](O)[C@H]2O)c1; test: purified protein; format: biochemical, Pseudomonas syringae; details: DL-threo-β-phenylserine as co-substrate, 0.2 M glycine-KCl-KOH pH 10.5, 30°C (standard assay), varied: cofactor

Molecule	stoichiometry N [1]	Km (purified protein [2]) [mM]	Km (purified protein [3]) [mM]
L-phenylserine dehydrogenase (ORF3) from Pseudomonas syringae NK-15 (enzyme)	4	–	–
L-phenylserine dehydrogenase (ORF3; L-PSDH) (Pseudomonas syringae) (protein, 98 kDa native, probably homotetramer; AB499092 is the 9,246-bp operon entry, which also holds D-phenylserine dehydrogenase (orf5)) MSFPVCLVTGAATGIGAATALRFARDGWGVAINNFDDSTRADAERVAAQCREAGAQTLVIDADVGDDGACRRMVEQVAAQWGRIDALVNSAGTTRVIPHSDFEAIDPDEFERIYRVNLIGMFQMTRAATPLLRESFCPGHFASVLHVSSLASLYGTGLHPAYAASKGAVNSLTLSLARNLAPLVRVNAIAPGMVDDGLLRRVLGDEADGRVVESMRENAPLKRVSQPAEIAELAWFLAAHAPAMTGQVLAIENGLLLNT	–	59	2.1
